From publication PMC4098744, “Systematic family‐wide analysis of sodium bicarbonate cotransporter NBCn1/SLC4A7 interactions with PDZ scaffold proteins” (Physiological Reports, 2014) come the findings set out here.

This experiment deals with T1, PSD‐95 third PDZ domain (residue 307–446) (UniProt P78352 307-446).
T1 construct: also called PSD‐95 (3); PSD‐95 (domain 3); source: spotted on a PDZ array membrane (Zhang et al. 2007)
Put plainly: peptide or protein array; PDZ filter overlay: 96 Class I PDZ domains spotted on a nylon membrane; overlaid with 100 nmol/L GST/NBCn1 (or GST only) in blot buffer (50 mmol/L NaCl, 2% dry milk, 0.1% Tween 20, 10 mmol/L HEPES; pH 7.4) for 1 h at room temperature; detected with HRP-conjugated anti-GST antibody; done three times. As to conditions: both partners purified.

T1 sequence (P78352 307-446): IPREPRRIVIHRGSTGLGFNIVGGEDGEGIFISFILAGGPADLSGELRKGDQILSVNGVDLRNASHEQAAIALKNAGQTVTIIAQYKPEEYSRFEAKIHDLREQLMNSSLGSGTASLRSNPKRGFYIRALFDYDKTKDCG

B1: GST/NBCn1 fusion protein containing the C‐terminal 26 amino acids of rat NBCn1 (domain or fragment, UniProt Q9R1N3-2 1229-1254, looked up)
chain: PEKPVSVTINFEDEPSKKYMDAETSL
notes: NBCn1 (SLC4A7), rat, the C-terminal 26 amino acids; also called C‐terminal domain of NBCn1 fused to GST; source: prepared as described previously (Lee et al. 2012)
On to B1, for which the binding result is on record as “binds”.
